From patent US20250312453A1 come the findings set out here.

This test concerns the target MSLN (UniProt Q13421). Nature of the test: BLI. (In general: Biolayer interferometry detects binding as a change in optical thickness at a sensor tip.)

Sequence of MSLN (Q13421 other isoform, or with tags, fused parts or gaps limits assumed): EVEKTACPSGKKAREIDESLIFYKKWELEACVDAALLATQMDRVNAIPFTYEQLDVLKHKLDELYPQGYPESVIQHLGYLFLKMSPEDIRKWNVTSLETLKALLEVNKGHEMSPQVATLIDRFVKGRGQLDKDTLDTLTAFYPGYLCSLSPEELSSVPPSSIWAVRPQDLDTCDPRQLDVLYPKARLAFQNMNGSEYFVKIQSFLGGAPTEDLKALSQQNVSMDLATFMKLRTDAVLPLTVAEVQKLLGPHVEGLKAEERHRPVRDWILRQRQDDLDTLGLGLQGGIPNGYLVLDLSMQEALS

B1: nanobody NM5 (VHH)
VHH: DVQLQESGGGLVQAGGSLRLSCVGAGVSFSPYGIGWWRQAQGNQREWVASIYRSGSTNYEDFAKDRFTISRDNTKNTAYLQMNSLKPEDTAVYYCQILGTSYRGQGTQVTVSS
Consider B1, for which the Kd was 11.4 nM.

The term Kd denotes the free concentration of one partner at which half of the binding sites on the other are occupied at equilibrium, for simple one-to-one binding.
